Data: the supplement of paper PMC7125110
± gives the standard error. For some assays here: This sample holds only a part of the variants without activity.

B1: glmS ribozyme (parent)
chain: AUAAAAGCGCCAGAACUACAGAAAUGUAGUUGACGAGGAGGAGGUUUAUCGAAUUUUCGGCGGAUGCCUCCAAA

Columns and labels:
Details in all cases: with glucosamine-6-phosphate
glucosamine-6-phosphate [1] = variants of: B1; test: kcat; higher = faster cleavage; RNA array
Procedure, shortened: (§1)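 Glucosamine-6-phosphate, from 40 μM to 10 mM in HEPES/KCl/Mg(OAc)2 buffer, was flowed over sequenced MiSeq chips carrying barcoded ribozyme variants transcribed in situ by E. coli RNA polymerase. A hybridised Cy3 probe tracked the variants at 37 °C as tiles were imaged over ~14 h. kobs, kcat and KM were obtained by fitting normalised per-tile medians to exponential decays and then applying weighted Michaelis–Menten fits across concentrations.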

glucosamine-6-phosphate [2] = variants of: B1; test: self-cleavage kobs at 40 uM GlcN6P; higher = faster cleavage; RNA array
Procedure, shortened: as §1

glucosamine-6-phosphate [3] = variants of: B1; test: self-cleavage kobs at 160 uM GlcN6P; higher = faster cleavage; RNA array
Procedure, shortened: as §1

glucosamine-6-phosphate [4] = variants of: B1; test: self-cleavage kobs at 640 uM GlcN6P; higher = faster cleavage; RNA array
Procedure, shortened: as §1

glucosamine-6-phosphate [5] = variants of: B1; test: self-cleavage kobs at 2500 uM GlcN6P; higher = faster cleavage; RNA array
Procedure, shortened: as §1

glucosamine-6-phosphate [6] = variants of: B1; test: self-cleavage kobs at 10000 uM GlcN6P; higher = faster cleavage; RNA array
Procedure, shortened: as §1

glucosamine-6-phosphate [7] = variants of: B1; test: KM; higher = weaker cofactor use; RNA array
Procedure, shortened: as §1

U31A C67U
kcat (glucosamine-6-phosphate [1]): 0.00291 ± 0.0011 s⁻¹ | self-cleavage kobs at 40 uM GlcN6P (glucosamine-6-phosphate [2]): 0.000116 ± 1.4e-05 s⁻¹ | self-cleavage kobs at 160 uM GlcN6P (glucosamine-6-phosphate [3]): 0.000324 ± 8.8e-05 s⁻¹ | self-cleavage kobs at 640 uM GlcN6P (glucosamine-6-phosphate [4]): 0.00143 ± 0.00019 s⁻¹ | self-cleavage kobs at 2500 uM GlcN6P (glucosamine-6-phosphate [5]): 0.00135 ± 0.00029 s⁻¹ | self-cleavage kobs at 10000 uM GlcN6P (glucosamine-6-phosphate [6]): 0.00427 ± 0.00063 s⁻¹

U31A G37C
kcat (glucosamine-6-phosphate [1]): 3.35e-05 ± 2.7e-06 s⁻¹ | KM (glucosamine-6-phosphate [7]): 1840 ± 580 µM

U31A G37A
kcat (glucosamine-6-phosphate [1]): 0.0007 ± 0.00026 s⁻¹ | self-cleavage kobs at 160 uM GlcN6P (glucosamine-6-phosphate [3]): 6.91e-05 ± 1.3e-05 s⁻¹ | self-cleavage kobs at 640 uM GlcN6P (glucosamine-6-phosphate [4]): 0.000245 ± 3.6e-05 s⁻¹ | self-cleavage kobs at 2500 uM GlcN6P (glucosamine-6-phosphate [5]): 0.000309 ± 7.3e-05 s⁻¹ | self-cleavage kobs at 10000 uM GlcN6P (glucosamine-6-phosphate [6]): 0.000939 ± 0.00018 s⁻¹

U30G U69A
kcat (glucosamine-6-phosphate [1]): 8.59e-05 ± 2.5e-05 s⁻¹ | self-cleavage kobs at 160 uM GlcN6P (glucosamine-6-phosphate [3]): 3.45e-05 ± 1.7e-05 s⁻¹ | self-cleavage kobs at 640 uM GlcN6P (glucosamine-6-phosphate [4]): 4.5e-05 ± 1.1e-05 s⁻¹ | self-cleavage kobs at 2500 uM GlcN6P (glucosamine-6-phosphate [5]): 0.00013 ± 2e-05 s⁻¹ | self-cleavage kobs at 10000 uM GlcN6P (glucosamine-6-phosphate [6]): 6.73e-05 ± 1.4e-05 s⁻¹

U31C A52U
kcat (glucosamine-6-phosphate [1]): 7.02e-05 ± 1.4e-05 s⁻¹ | self-cleavage kobs at 2500 uM GlcN6P (glucosamine-6-phosphate [5]): 5.04e-05 ± 6e-06 s⁻¹ | self-cleavage kobs at 10000 uM GlcN6P (glucosamine-6-phosphate [6]): 5.66e-05 ± 7.1e-06 s⁻¹

U31A G32A
kcat (glucosamine-6-phosphate [1]): 0.00184 ± 0.00083 s⁻¹ | self-cleavage kobs at 160 uM GlcN6P (glucosamine-6-phosphate [3]): 6.66e-05 ± 1.2e-05 s⁻¹ | self-cleavage kobs at 640 uM GlcN6P (glucosamine-6-phosphate [4]): 0.000222 ± 3.2e-05 s⁻¹ | self-cleavage kobs at 2500 uM GlcN6P (glucosamine-6-phosphate [5]): 0.000381 ± 7.7e-05 s⁻¹ | self-cleavage kobs at 10000 uM GlcN6P (glucosamine-6-phosphate [6]): 0.0014 ± 0.00017 s⁻¹

U31A G32U
kcat (glucosamine-6-phosphate [1]): 0.00113 ± 0.00055 s⁻¹ | self-cleavage kobs at 160 uM GlcN6P (glucosamine-6-phosphate [3]): 4.59e-05 ± 2e-05 s⁻¹ | self-cleavage kobs at 640 uM GlcN6P (glucosamine-6-phosphate [4]): 6.96e-05 ± 1.7e-05 s⁻¹ | self-cleavage kobs at 2500 uM GlcN6P (glucosamine-6-phosphate [5]): 0.000256 ± 4.4e-05 s⁻¹ | self-cleavage kobs at 10000 uM GlcN6P (glucosamine-6-phosphate [6]): 0.0006 ± 0.00016 s⁻¹

U31C A39C
kcat (glucosamine-6-phosphate [1]): 0.00127 ± 0.00014 s⁻¹ | KM (glucosamine-6-phosphate [7]): 2620 ± 500 µM | self-cleavage kobs at 40 uM GlcN6P (glucosamine-6-phosphate [2]): 3.17e-05 ± 7.1e-06 s⁻¹ | self-cleavage kobs at 160 uM GlcN6P (glucosamine-6-phosphate [3]): 6.64e-05 ± 9.6e-06 s⁻¹ | self-cleavage kobs at 640 uM GlcN6P (glucosamine-6-phosphate [4]): 0.000259 ± 2.4e-05 s⁻¹ | self-cleavage kobs at 2500 uM GlcN6P (glucosamine-6-phosphate [5]): 0.00058 ± 5.1e-05 s⁻¹ | self-cleavage kobs at 10000 uM GlcN6P (glucosamine-6-phosphate [6]): 0.00102 ± 6.7e-05 s⁻¹

U31C A39G
kcat (glucosamine-6-phosphate [1]): 0.018 ± 0.0061 s⁻¹ | KM (glucosamine-6-phosphate [7]): 4940 ± 2200 µM | self-cleavage kobs at 40 uM GlcN6P (glucosamine-6-phosphate [2]): 0.000253 ± 4.8e-05 s⁻¹ | self-cleavage kobs at 160 uM GlcN6P (glucosamine-6-phosphate [3]): 0.000489 ± 8.5e-05 s⁻¹ | self-cleavage kobs at 640 uM GlcN6P (glucosamine-6-phosphate [4]): 0.00212 ± 0.00039 s⁻¹ | self-cleavage kobs at 2500 uM GlcN6P (glucosamine-6-phosphate [5]): 0.00524 ± 0.0013 s⁻¹ | self-cleavage kobs at 10000 uM GlcN6P (glucosamine-6-phosphate [6]): 0.0125 ± 0.0018 s⁻¹

U31A A42G
kcat (glucosamine-6-phosphate [1]): 0.0179 ± 0.0037 s⁻¹ | KM (glucosamine-6-phosphate [7]): 1430 ± 370 µM | self-cleavage kobs at 40 uM GlcN6P (glucosamine-6-phosphate [2]): 0.000495 ± 7.3e-05 s⁻¹ | self-cleavage kobs at 160 uM GlcN6P (glucosamine-6-phosphate [3]): 0.00191 ± 0.00054 s⁻¹ | self-cleavage kobs at 2500 uM GlcN6P (glucosamine-6-phosphate [5]): 0.00902 ± 0.0026 s⁻¹ | self-cleavage kobs at 10000 uM GlcN6P (glucosamine-6-phosphate [6]): 0.0188 ± 0.0042 s⁻¹

U31A A48G
kcat (glucosamine-6-phosphate [1]): 2.21e-05 ± 4.8e-06 s⁻¹ | self-cleavage kobs at 2500 uM GlcN6P (glucosamine-6-phosphate [5]): 3.3e-05 ± 1.1e-05 s⁻¹ | self-cleavage kobs at 10000 uM GlcN6P (glucosamine-6-phosphate [6]): 1.74e-05 ± 7.5e-06 s⁻¹

U31A A48C
kcat (glucosamine-6-phosphate [1]): 0.000149 ± 3.3e-05 s⁻¹ | self-cleavage kobs at 640 uM GlcN6P (glucosamine-6-phosphate [4]): 4.87e-05 ± 1.3e-05 s⁻¹ | self-cleavage kobs at 2500 uM GlcN6P (glucosamine-6-phosphate [5]): 7.42e-05 ± 1.5e-05 s⁻¹ | self-cleavage kobs at 10000 uM GlcN6P (glucosamine-6-phosphate [6]): 0.00014 ± 2.4e-05 s⁻¹

U31C A52U G63U U69G
kcat (glucosamine-6-phosphate [1]): 1.91e-05 ± 1.4e-06 s⁻¹

U30G G59U
kcat (glucosamine-6-phosphate [1]): 1.09e-05 ± 1.8e-06 s⁻¹ | self-cleavage kobs at 40 uM GlcN6P (glucosamine-6-phosphate [2]): < 1e-05 s⁻¹

U31A A39C
kcat (glucosamine-6-phosphate [1]): 0.00192 ± 0.00067 s⁻¹ | KM (glucosamine-6-phosphate [7]): 2120 ± 1000 µM | self-cleavage kobs at 40 uM GlcN6P (glucosamine-6-phosphate [2]): 5.43e-05 ± 7.8e-06 s⁻¹ | self-cleavage kobs at 160 uM GlcN6P (glucosamine-6-phosphate [3]): 0.000105 ± 1.4e-05 s⁻¹ | self-cleavage kobs at 640 uM GlcN6P (glucosamine-6-phosphate [4]): 0.000525 ± 4.9e-05 s⁻¹ | self-cleavage kobs at 2500 uM GlcN6P (glucosamine-6-phosphate [5]): 0.000973 ± 0.00011 s⁻¹ | self-cleavage kobs at 10000 uM GlcN6P (glucosamine-6-phosphate [6]): 0.00166 ± 0.0003 s⁻¹

U30G C58G A64C C67G C71G
kcat (glucosamine-6-phosphate [1]): 4.36e-05 ± 1.6e-05 s⁻¹ | self-cleavage kobs at 160 uM GlcN6P (glucosamine-6-phosphate [3]): 5.89e-05 ± 2e-05 s⁻¹

U30G A64C
kcat (glucosamine-6-phosphate [1]): 5.41e-05 ± 5.3e-06 s⁻¹ | KM (glucosamine-6-phosphate [7]): 4950 ± 1100 µM | self-cleavage kobs at 10000 uM GlcN6P (glucosamine-6-phosphate [6]): 3.61e-05 ± 1.5e-05 s⁻¹

U30G A64G
kcat (glucosamine-6-phosphate [1]): 0.00607 ± 0.0017 s⁻¹ | KM (glucosamine-6-phosphate [7]): 1440 ± 540 µM | self-cleavage kobs at 40 uM GlcN6P (glucosamine-6-phosphate [2]): 0.000178 ± 3.9e-05 s⁻¹ | self-cleavage kobs at 10000 uM GlcN6P (glucosamine-6-phosphate [6]): 0.0064 ± 0.0018 s⁻¹
